# Assay results: paper doi:10.1101/2021.04.27.441613 (bioRxiv, 2021)
# Biological target: the molecule itself
# Test: SEC + other: SDS-PAGE
protein,measurement,value
dLanYFP (other) MSLPATHELHIFGSFNGVDFDMVGRGTGNPNDGYEELNLKSTKGALQFSPWILVPQIGYGFHQYLPFPDGMSPFQAAMKDGSGYQVHRTMQFEDGASLTSNYRYTYEGSHIKGEFQVKGTGFPADGPVMTNSLTAADWCVTKMLYPNDKTIISTFDWTYTTGSGKRYQSTVRTTYTFAKPMAANILKNQPMFVFRKTELKHSKTELNFKEWQKAFTDVM,stoichiometry N,2
